Measurements taken from article doi:10.1101/2024.04.26.591398 (2024).

Molecular target: T1, FITC-casein (FITC label (FITC-casein))
T1 chain: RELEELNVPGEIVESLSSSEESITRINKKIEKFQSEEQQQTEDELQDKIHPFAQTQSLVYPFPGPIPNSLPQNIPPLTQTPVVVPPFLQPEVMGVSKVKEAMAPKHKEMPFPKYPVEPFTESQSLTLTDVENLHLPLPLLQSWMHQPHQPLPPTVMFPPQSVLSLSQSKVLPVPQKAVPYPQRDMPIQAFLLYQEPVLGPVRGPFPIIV
Assay: FP; competition: Ydj1 dissociating FITC-casein from Hsp104 R366E, ATPγS

B1: Ydj1 (natural protein)
chain: MVKETKFYDILGVPVTATDVEIKKAYRKCALKYHPDKNPSEEAAEKFKEASAAYEILSDPEKRDIYDQFGEDGLSGAGGAGGFPGGGFGFGDDIFSQFFGAGGAQRPRGPQRGKDIKHEISASLEELYKGRTAKLALNKQILCKECEGRGGKKGAVKKCTSCNGQGIKFVTRQMGPMIQRFQTECDVCHGTGDIIDPKDRCKSCNGKKVENERKILEVHVEPGMKDGQRIVFKGEADQAPDVIPGDVVFIVSERPHKSFKRDGDDLVYEAEIDLLTAIAGGEFALEHVSGDWLKVGIVPGEVIAPGMRKVIEGKGMPIPKYGGYGNLIIKFTIKFPENHFTSEENLKKLEEILPPRIVPAIPKKATVDECVLADFDPAKYNRTRASRGGANYDSDEEEQGGEGVQCASQ
Which IC50 does the source give for B1 here?
Its IC50 is about 20 µM.
